How the values were obtained:
Assay in all cases: cell_activity
[1] = tested on: ssTTN 5.1 L TALEN (Xanthomonas (engineered)?); settings: as pair with 5.1 R; TALEN mRNA transfected
[2] = tested on: ssTTN 5.1 R TALEN (Xanthomonas (engineered)?); settings: as pair with 5.1 L; TALEN mRNA transfected
[3] = tested on: ssBAG3 4.1 L TALEN (Xanthomonas (engineered)?); settings: as pair with 4.1 R; transfected cells
[4] = tested on: ssTTN 3.1 L TALEN (Xanthomonas (engineered)?); settings: as pair with 3.1 R; TALEN mRNA transfected
[5] = tested on: ssBAG3 4.1 R TALEN (Xanthomonas (engineered)?); settings: as pair with 4.1 L; transfected cells
[6] = tested on: ssTTN 3.1 R TALEN (Xanthomonas (engineered)?); settings: as pair with 3.1 L; TALEN mRNA transfected

## CAGTCATGCAATTTT (double strand) [ssTTN 5.1 L site]
[1]
  activity: 44.9 % editing

## CCAATTCCCAAGTAAT (double strand) [ssTTN 5.1 R site]
[2]
  activity: 44.9 % editing

## TGAAGGCAAGAAGACAGAC (double strand) [ssBAG3 4.1 L site]
[3]
  activity: 21.3 % editing

## GTCATATCCATAAAAAAC (double strand) [ssTTN 3.1 L site]
[4]
  activity: 60 % editing

## TGGTCAAATACTCTTCTAT (double strand) [ssBAG3 4.1 R site]
[5]
  activity: 21.3 % editing

## GTCCTAACATTTTATAT (double strand) [ssTTN 3.1 R site]
[6]
  activity: 60 % editing

— patent publication US20180084767
